According to the RNAGym collection of RNA variant scans (doi:10.7554/elife.80360):

B1: CPEB3 Ribozyme (parent)
chain: GGGGGCCACAGCAGAAGCGUUCACGUCGCGGCCCCUGUCAGAUUCUGGUGAAUCUGCGAAUUCUGCUGU

Variants of: B1
Assay: self-cleavage, relative activity (ratio to wild type); higher = more cleavage; co-transcriptional
With C32G U55C the self-cleavage was 0.258.
Variant C32G U55G has a self-cleavage of 0.218.
Variant C32G U61A has a self-cleavage of 0.292.
In the case of C32G U62A, the self-cleavage is reported as 0.26.
C32G U62C gave a self-cleavage of 0.306.
C32G U62G showed a self-cleavage of 0.271.
Variant C32G U64A has a self-cleavage of 0.235.
For C32G U64G, the self-cleavage was 0.253.
With C32G U67A the self-cleavage was 0.525.
C32G U67C gave a self-cleavage of 0.536.
For C32G U67G, the self-cleavage was 0.584.
C32G U69C gave a self-cleavage of 0.839.
With C32U the self-cleavage was 0.993.
Variant C32U A42C has a self-cleavage of 0.961.
Work on C32U A42G yielded a self-cleavage of 0.914.
With C32U A42U the self-cleavage was 0.933.
With C32U A51C the self-cleavage was 0.964.
Work on C32U A52G yielded a self-cleavage of 0.967.
For C32U A52U, the self-cleavage was 0.987.
C32U A59C showed a self-cleavage of 0.687.
C32U A59G showed a self-cleavage of 0.954.
C32U A59U showed a self-cleavage of 0.785.
In the case of C32U A60G, the self-cleavage is reported as 0.906.
C32U C33A gave a self-cleavage of 0.593.
With C32U C33U the self-cleavage was 0.861.
Variant C32U C34A has a self-cleavage of 0.541.
C32U C35G showed a self-cleavage of 0.349.
Variant C32U C39U has a self-cleavage of 0.937.
Work on C32U C45A yielded a self-cleavage of 0.983.
In the case of C32U C45G, the self-cleavage is reported as 0.975.
Work on C32U C45U yielded a self-cleavage of 1.01.
C32U C54A gave a self-cleavage of 0.861.
Work on C32U C54U yielded a self-cleavage of 0.966.
With C32U C57G the self-cleavage was 0.335.
Work on C32U C57U yielded a self-cleavage of 0.327.
Work on C32U C63A yielded a self-cleavage of 0.886.
C32U C63U showed a self-cleavage of 0.956.
Variant C32U C66A has a self-cleavage of 0.893.
In the case of C32U C66G, the self-cleavage is reported as 0.923.
Variant C32U C66U has a self-cleavage of 1.
C32U G37U showed a self-cleavage of 0.292.
C32U G41A gave a self-cleavage of 0.845.
With C32U G47U the self-cleavage was 1.01.
Work on C32U G50A yielded a self-cleavage of 0.995.
Work on C32U G50U yielded a self-cleavage of 0.978.
C32U G56A showed a self-cleavage of 0.94.
Variant C32U G56U has a self-cleavage of 0.971.
Work on C32U G58A yielded a self-cleavage of 0.983.
Variant C32U G65A has a self-cleavage of 0.988.
With C32U G65C the self-cleavage was 0.778.
C32U G68A gave a self-cleavage of 0.977.
Variant C32U G68C has a self-cleavage of 1.02.
With C32U G68U the self-cleavage was 1.02.
C32U U36G gave a self-cleavage of 0.297.
Work on C32U U38C yielded a self-cleavage of 0.955.
In the case of C32U U43A, the self-cleavage is reported as 0.933.
Variant C32U U43C has a self-cleavage of 0.947.
C32U U43G showed a self-cleavage of 0.963.
For C32U U44A, the self-cleavage was 0.948.
With C32U U46A the self-cleavage was 1.
For C32U U46C, the self-cleavage was 1.
For C32U U46G, the self-cleavage was 0.951.
With C32U U49A the self-cleavage was 1.01.
Work on C32U U53A yielded a self-cleavage of 0.982.
Variant C32U U53G has a self-cleavage of 0.967.
With C32U U55A the self-cleavage was 0.989.
C32U U55G gave a self-cleavage of 0.896.
With C32U U61C the self-cleavage was 0.856.
Work on C32U U61G yielded a self-cleavage of 0.829.
Work on C32U U62G yielded a self-cleavage of 0.864.
C32U U64G showed a self-cleavage of 1.01.
With C32U U67A the self-cleavage was 0.987.
C32U U69C gave a self-cleavage of 1.06.
With C32U U69G the self-cleavage was 1.03.
C33A A40G gave a self-cleavage of 0.748.
C33A A51C showed a self-cleavage of 0.366.
C33A A51G gave a self-cleavage of 0.7.
With C33A A51U the self-cleavage was 0.46.
With C33A A59C the self-cleavage was 0.322.
Variant C33A A60G has a self-cleavage of 0.378.
C33A A60U gave a self-cleavage of 0.38.
Work on C33A C34A yielded a self-cleavage of 0.331.
With C33A C34G the self-cleavage was 0.229.
C33A C35A showed a self-cleavage of 0.151.
C33A C35G gave a self-cleavage of 0.204.
In the case of C33A C35U, the self-cleavage is reported as 0.442.
With C33A C45U the self-cleavage was 0.799.
C33A C54A gave a self-cleavage of 0.326.
With C33A C54G the self-cleavage was 0.301.
With C33A C54U the self-cleavage was 0.723.
With C33A C57A the self-cleavage was 0.345.
C33A C57G gave a self-cleavage of 0.263.
In the case of C33A C63G, the self-cleavage is reported as 0.513.
C33A C66A gave a self-cleavage of 0.76.
In the case of C33A C66G, the self-cleavage is reported as 0.665.
In the case of C33A C66U, the self-cleavage is reported as 0.901.
C33A G37A gave a self-cleavage of 0.26.
Work on C33A G37U yielded a self-cleavage of 0.12.
C33A G41A gave a self-cleavage of 0.349.
In the case of C33A G41U, the self-cleavage is reported as 0.562.
For C33A G47A, the self-cleavage was 0.925.
In the case of C33A G47C, the self-cleavage is reported as 0.946.
Work on C33A G48C yielded a self-cleavage of 0.898.
With C33A G48U the self-cleavage was 0.929.
C33A G50A gave a self-cleavage of 0.938.
Work on C33A G50C yielded a self-cleavage of 0.92.
C33A G56C gave a self-cleavage of 0.488.
Variant C33A G56U has a self-cleavage of 0.756.
Variant C33A G58C has a self-cleavage of 0.837.
With C33A G58U the self-cleavage was 0.881.
In the case of C33A G65C, the self-cleavage is reported as 0.529.
C33A G68A showed a self-cleavage of 0.951.
For C33A G68U, the self-cleavage was 0.904.
C33A U36A gave a self-cleavage of 0.157.
C33A U36C gave a self-cleavage of 0.785.
Variant C33A U36G has a self-cleavage of 0.256.
For C33A U38G, the self-cleavage was 0.212.
In the case of C33A U43C, the self-cleavage is reported as 0.461.
Work on C33A U43G yielded a self-cleavage of 0.361.
In the case of C33A U44A, the self-cleavage is reported as 0.313.
With C33A U44C the self-cleavage was 0.656.
With C33A U44G the self-cleavage was 0.374.
For C33A U49A, the self-cleavage was 0.965.
In the case of C33A U49C, the self-cleavage is reported as 0.926.
Variant C33A U49G has a self-cleavage of 0.981.
Variant C33A U53A has a self-cleavage of 0.392.
Variant C33A U53C has a self-cleavage of 0.48.
Variant C33A U53G has a self-cleavage of 0.346.
With C33A U55A the self-cleavage was 0.486.
In the case of C33A U55C, the self-cleavage is reported as 0.438.
Variant C33A U55G has a self-cleavage of 0.319.
C33A U61A showed a self-cleavage of 0.599.
Work on C33A U61C yielded a self-cleavage of 0.45.
Work on C33A U62A yielded a self-cleavage of 0.566.
C33A U64A gave a self-cleavage of 0.847.
Work on C33A U64C yielded a self-cleavage of 0.798.
In the case of C33A U64G, the self-cleavage is reported as 0.672.
With C33A U67A the self-cleavage was 0.977.
Work on C33A U67G yielded a self-cleavage of 1.01.
C33A U69C showed a self-cleavage of 1.04.
C33A U69G showed a self-cleavage of 0.988.
In the case of C33G A40C, the self-cleavage is reported as 0.324.
In the case of C33G A40U, the self-cleavage is reported as 0.273.
For C33G A42U, the self-cleavage was 0.556.
For C33G A51G, the self-cleavage was 0.739.
C33G A51U showed a self-cleavage of 0.415.
With C33G A52C the self-cleavage was 0.461.
With C33G A52G the self-cleavage was 0.663.
Variant C33G A59C has a self-cleavage of 0.326.
With C33G A60C the self-cleavage was 0.415.
For C33G A60G, the self-cleavage was 0.372.
In the case of C33G A60U, the self-cleavage is reported as 0.328.
In the case of C33G C35A, the self-cleavage is reported as 0.304.
Work on C33G C35G yielded a self-cleavage of 0.318.
Work on C33G C39A yielded a self-cleavage of 0.387.
Work on C33G C39G yielded a self-cleavage of 0.513.
In the case of C33G C39U, the self-cleavage is reported as 0.337.
With C33G C45A the self-cleavage was 0.47.
In the case of C33G C45G, the self-cleavage is reported as 0.537.
Work on C33G C45U yielded a self-cleavage of 0.641.
With C33G C54G the self-cleavage was 0.338.
For C33G C54U, the self-cleavage was 0.727.
Variant C33G C57A has a self-cleavage of 0.38.
C33G C57G showed a self-cleavage of 0.259.
In the case of C33G C57U, the self-cleavage is reported as 0.316.
In the case of C33G C63G, the self-cleavage is reported as 0.384.
Work on C33G C63U yielded a self-cleavage of 0.632.
